Source: patent publication US20230391845A1, “GLP-1, GIP AND GLUCAGON RECEPTOR TRIPLE AGONISTS” (priority 2020, published 2023)
*1 amine or outer side, *2 acyl side, *3 side chain or, on linkers, in order; H or OH if unused. Where a SMILES comes first, the peptide text is derived from it. Where no end group is shown, it is not given here. Side-chain parts run from the residue outwards. [ ]: non-standard residue; d: D form. The star is where a group is joined. C20 diacid = O=C(O)CCCCCCCCCCCCCCCCCCC(=O)*; γGlu = O=C(O)[C@H](CCC(=O)[*:2])N[*:1]; εLys = N[C@@H](CCCCN[*:1])C(=O)[*:2]; Palmitoyl = CCCCCCCCCCCCCCCC(=O)*; Aib = CC(C)(N)C(=O)O

T1: human GIP receptor (Homo sapiens, UniProt P48546)
T1 construct: expressed in transfected cells; host or cells: BHK cells (parent line BHKTS13) containing CRE luciferase
T1 sequence (P48546 22-466): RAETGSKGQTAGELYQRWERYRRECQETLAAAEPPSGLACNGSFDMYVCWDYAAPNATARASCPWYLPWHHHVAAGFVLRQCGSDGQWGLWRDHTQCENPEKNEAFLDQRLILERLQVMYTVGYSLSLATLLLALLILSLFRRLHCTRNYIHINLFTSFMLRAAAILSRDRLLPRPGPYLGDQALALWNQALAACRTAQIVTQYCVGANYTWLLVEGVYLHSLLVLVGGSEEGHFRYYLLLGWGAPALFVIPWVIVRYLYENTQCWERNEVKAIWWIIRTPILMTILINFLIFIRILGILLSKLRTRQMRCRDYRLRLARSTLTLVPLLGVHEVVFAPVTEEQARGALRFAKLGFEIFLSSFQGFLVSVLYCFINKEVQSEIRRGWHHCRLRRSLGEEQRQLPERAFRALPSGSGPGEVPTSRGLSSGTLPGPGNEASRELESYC

T2: human glucose-dependent insulinotropic polypeptide receptor (human, UniProt P48546 22-466)
T2 sequence (looked up): T1 sequence (P48546 22-466)

B1: Compound No. 58 (peptide)
peptide: Y[Aib]QGTFTSDYSIYLDKQAA[Aib]EFVNWLLAGGPSSGAPPPSK(Palmitoyl)-NH2
modifications: N-terminus assumed
SMILES: CCCCCCCCCCCCCCCC(=O)NCCCC[C@H](NC(=O)[C@H](CO)NC(=O)[C@@H]1CCCN1C(=O)[C@@H]1CCCN1C(=O)[C@@H]1CCCN1C(=O)[C@H](C)NC(=O)CNC(=O)[C@H](CO)NC(=O)[C@H](CO)NC(=O)[C@@H]1CCCN1C(=O)CNC(=O)CNC(=O)[C@H](C)NC(=O)[C@H](CC(C)C)NC(=O)[C@H](CC(C)C)NC(=O)[C@H](Cc1c[nH]c2ccccc12)NC(=O)[C@H](CC(N)=O)NC(=O)[C@@H](NC(=O)[C@H](Cc1ccccc1)NC(=O)[C@H](CCC(=O)O)NC(=O)C(C)(C)NC(=O)[C@H](C)NC(=O)[C@H](C)NC(=O)[C@H](CCC(N)=O)NC(=O)[C@H](CCCCN)NC(=O)[C@H](CC(=O)O)NC(=O)[C@H](CC(C)C)NC(=O)[C@H](Cc1ccc(O)cc1)NC(=O)[C@@H](NC(=O)[C@H](CO)NC(=O)[C@H](Cc1ccc(O)cc1)NC(=O)[C@H](CC(=O)O)NC(=O)[C@H](CO)NC(=O)[C@@H](NC(=O)[C@H](Cc1ccccc1)NC(=O)[C@@H](NC(=O)CNC(=O)[C@H](CCC(N)=O)NC(=O)C(C)(C)NC(=O)[C@@H](N)Cc1ccc(O)cc1)[C@@H](C)O)[C@@H](C)O)[C@@H](C)CC)C(C)C)C(N)=O
B2: Compound No. 60 (peptide)
peptide: Y[Aib]QGTFTSDYSIYLDKQAAKEFVNWLLAGGPSSGAPPPS-NH2
modifications: not fully specified (residue 20); printed as Y-Aib-QGTFTSDYSIYLDKQAA-K[2-[2-[2-[[2-[2-[2-[[(4S)-4-carboxy-4-(17-carboxyheptadecanoylamino)butanoyl]amino]ethoxy]ethoxy]acetyl]amino]ethoxy]ethoxy]acetyl]-EFVNWLLAGGPSSGAPPPS-NH2

Legend:
[1] = Pharmacokinetic study in minipigs, i.v. administration; design: species or system Göttingen minipigs; conditions: female, Göttingen, minipig, in vivo, iv
Procedure, shortened: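 Female Göttingen minipigs (7-14 months, 16-35 kg), fasted ~18 h pre-dose to 4 h post-dose, received i.v. injections of usually 1.5-2 nmol/kg via central venous catheter. Plasma sampled up to 14 days, assayed by ELISA or LCMS; terminal half-life (harmonic mean) from non-compartmental analysis.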

human GIP receptor = molecular target: T1, human GIP receptor; test: In vitro functional potency (CRE luciferase; whole cells), human GIPR; type: cell-based; conditions: BHK CRE luc2P hGIPR whole cells; Table 2; read-out: hGIPR CRE Luc EC50
human GLP-1 receptor = molecular target: T3, human GLP-1 receptor (Homo sapiens, UniProt P43220); test: In vitro functional potency (CRE luciferase; whole cells), human GLP-1R; type: cell-based; conditions: BHK CRE luc2P hGLP-1R whole cells; Table 2; read-out: hGLP-1R CRE Luc EC50
T3 construct: expressed in transfected cells; host or cells: BHK cells (parent line BHKTS13) containing CRE luciferase
T3 sequence (P43220 24-463): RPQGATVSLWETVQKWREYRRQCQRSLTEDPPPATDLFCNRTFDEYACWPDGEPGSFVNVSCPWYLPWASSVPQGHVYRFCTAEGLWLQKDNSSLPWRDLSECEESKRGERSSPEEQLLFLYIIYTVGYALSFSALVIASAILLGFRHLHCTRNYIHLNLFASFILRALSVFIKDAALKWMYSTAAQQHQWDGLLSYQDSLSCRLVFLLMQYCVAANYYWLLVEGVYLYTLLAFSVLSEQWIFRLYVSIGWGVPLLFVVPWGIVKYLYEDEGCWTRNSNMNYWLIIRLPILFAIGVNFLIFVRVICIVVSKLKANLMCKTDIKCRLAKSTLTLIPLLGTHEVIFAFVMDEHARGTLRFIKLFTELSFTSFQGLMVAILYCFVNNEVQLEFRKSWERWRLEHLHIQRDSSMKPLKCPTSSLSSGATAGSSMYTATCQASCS

[2] = molecular target: T2, human glucose-dependent insulinotropic …; test: cell-based or functional assay
[3] = molecular target: human glucagon-like peptide 1 receptor (human, UniProt P43220 24-463); test: cell-based or functional assay
human glucagon receptor = human glucagon receptor (human, UniProt P47871 26-477); test: cell-based or functional assay
Chain of human glucagon receptor (P47871 26-477): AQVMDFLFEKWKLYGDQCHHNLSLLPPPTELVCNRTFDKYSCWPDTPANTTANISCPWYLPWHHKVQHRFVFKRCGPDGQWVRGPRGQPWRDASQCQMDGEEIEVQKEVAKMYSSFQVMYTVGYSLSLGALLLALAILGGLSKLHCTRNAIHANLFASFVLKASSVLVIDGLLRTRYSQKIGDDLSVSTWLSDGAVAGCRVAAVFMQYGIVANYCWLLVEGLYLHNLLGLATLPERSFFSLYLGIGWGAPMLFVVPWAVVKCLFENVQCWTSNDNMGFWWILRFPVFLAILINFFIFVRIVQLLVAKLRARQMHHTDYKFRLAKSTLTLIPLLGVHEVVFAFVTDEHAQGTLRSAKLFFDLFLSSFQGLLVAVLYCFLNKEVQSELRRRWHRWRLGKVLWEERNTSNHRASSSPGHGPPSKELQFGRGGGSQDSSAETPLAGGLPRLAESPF

Molecule | half-life [1] | EC50 (human GIP receptor) | EC50 (human GLP-1 receptor) | hGIPR CRE Luc EC50 (pM) [2] | hGLP-1R CRE Luc EC50 (pM) [3] | hGcgR CRE Luc EC50 (pM) (human glucagon receptor)
CC[C@H](C)[C@H](NC(=O)[C@H](CO)NC(=O)[C@H](Cc1ccc(O)cc1)NC(=O)[C@H](CC(=O)O)NC(=O)[C@H](CO)NC(=O)[C@@H](NC(=O)[C@H](Cc1ccccc1)NC(=O)[C@@H](NC(=O)CNC(=O)[C@H](Cc1c[nH]cn1)NC(=O)C(C)(C)NC(=O)[C@@H](N)Cc1c[nH]cn1)[C@@H](C)O)[C@@H](C)O)C(=O)N[C@@H](Cc1ccc(O)cc1)C(=O)N[C@@H](CC(C)C)C(=O)N[C@@H](CCC(=O)O)C(=O)N[C@@H](CCCCNC(=O)[C@@H](N)CCCCNC(=O)[C@@H](N)CCCCNC(=O)CC[C@H](NC(=O)CCCCCCCCCCCCCCCCCCC(=O)O)C(=O)O)C(=O)N[C@@H](CCC(N)=O)C(=O)N[C@@H](Cc1ccc(O)cc1)C(=O)N[C@@H](C)C(=O)NC(C)(C)C(=O)N[C@@H](CCC(=O)O)C(=O)N[C@@H](Cc1ccccc1)C(=O)N[C@H](C(=O)N[C@@H](CCC(N)=O)C(=O)N[C@@H](Cc1c[nH]c2ccccc12)C(=O)N[C@@H](CC(C)C)C(=O)N[C@@H](CC(C)C)C(=O)N[C@@H](CCC(=O)O)C(=O)NCC(=O)NCC(=O)N1CCC[C@H]1C(=O)N[C@@H](CO)C(=O)N[C@@H](CO)C(=O)NCC(=O)N[C@@H](C)C(=O)N1CCC[C@H]1C(=O)N1CCC[C@H]1C(=O)N1CCC[C@H]1C(=O)N[C@@H](CO)C(N)=O)C(C)C [Compound No. 24] (H-H[Aib]HGTFTSDYSIYLEK([εLys-εLys-γGlu-C20 diacid])QYA[Aib]EFVQWLLEGGPSSGAPPPS-NH2) | 3.42 days | 7.7 pM | – | – | – | –
CC[C@H](C)[C@H](NC(=O)[C@H](CO)NC(=O)[C@H](Cc1ccc(O)cc1)NC(=O)[C@H](CC(=O)O)NC(=O)[C@H](CO)NC(=O)[C@@H](NC(=O)[C@H](Cc1ccccc1)NC(=O)[C@@H](NC(=O)CNC(=O)[C@H](Cc1c[nH]cn1)NC(=O)C(C)(C)NC(=O)[C@@H](N)Cc1c[nH]cn1)[C@@H](C)O)[C@@H](C)O)C(=O)N[C@@H](CC(C)C)C(=O)N[C@@H](CC(C)C)C(=O)N[C@@H](CCC(=O)O)C(=O)N[C@@H](CCCCNC(=O)[C@@H](N)CCCCNC(=O)[C@@H](N)CCCCNC(=O)CC[C@H](NC(=O)CCCCCCCCCCCCCCCCCCC(=O)O)C(=O)O)C(=O)N[C@@H](CCCCN)C(=O)N[C@@H](Cc1ccc(O)cc1)C(=O)N[C@@H](C)C(=O)NC(C)(C)C(=O)N[C@@H](CCC(=O)O)C(=O)N[C@@H](Cc1ccccc1)C(=O)N[C@H](C(=O)N[C@@H](CCC(N)=O)C(=O)N[C@@H](Cc1c[nH]c2ccccc12)C(=O)N[C@@H](CC(C)C)C(=O)N[C@@H](CC(C)C)C(=O)N[C@@H](CCC(=O)O)C(=O)NCC(=O)NCC(=O)N1CCC[C@H]1C(=O)N[C@@H](CO)C(=O)N[C@@H](CO)C(=O)NCC(=O)N[C@@H](C)C(=O)N1CCC[C@H]1C(=O)N1CCC[C@H]1C(=O)N1CCC[C@H]1C(=O)N[C@@H](CO)C(N)=O)C(C)C [Compound No. 41] (H-H[Aib]HGTFTSDYSILLEK([εLys-εLys-γGlu-C20 diacid])KYA[Aib]EFVQWLLEGGPSSGAPPPS-NH2) | 2.88 days | 9.3 pM | 4.3 pM | – | – | –
CC[C@H](C)[C@H](NC(=O)[C@H](CO)NC(=O)[C@H](Cc1ccc(O)cc1)NC(=O)[C@H](CC(=O)O)NC(=O)[C@H](CO)NC(=O)[C@@H](NC(=O)[C@H](Cc1ccccc1)NC(=O)[C@@H](NC(=O)CNC(=O)[C@H](Cc1c[nH]cn1)NC(=O)C(C)(C)NC(=O)[C@@H](N)Cc1c[nH]cn1)[C@@H](C)O)[C@@H](C)O)C(=O)N[C@@H](CC(C)C)C(=O)N[C@@H](CC(C)C)C(=O)N[C@@H](CCC(=O)O)C(=O)N[C@@H](CCCCNC(=O)[C@@H](N)CCCCNC(=O)[C@@H](N)CCCCNC(=O)CC[C@H](NC(=O)CCCCCCCCCCCCCCCCCCC(=O)O)C(=O)O)C(=O)N[C@@H](CCC(N)=O)C(=O)N[C@@H](C)C(=O)N[C@@H](C)C(=O)N[C@@H](CCC(=O)O)C(=O)N[C@@H](CCC(=O)O)C(=O)N[C@@H](Cc1ccccc1)C(=O)N[C@H](C(=O)N[C@@H](CCC(N)=O)C(=O)N[C@@H](Cc1c[nH]c2ccccc12)C(=O)N[C@@H](CC(C)C)C(=O)N[C@@H](CC(C)C)C(=O)N[C@@H](CCC(=O)O)C(=O)NCC(=O)NCC(=O)N1CCC[C@H]1C(=O)N[C@@H](CO)C(=O)N[C@@H](CO)C(=O)NCC(=O)N[C@@H](C)C(=O)N1CCC[C@H]1C(=O)N1CCC[C@H]1C(=O)N1CCC[C@H]1C(=O)N[C@@H](CO)C(N)=O)C(C)C [Compound No. 49] (H-H[Aib]HGTFTSDYSILLEK([εLys-εLys-γGlu-C20 diacid])QAAEEFVQWLLEGGPSSGAPPPS-NH2) | – | 2.1 pM | 1.4 pM | – | – | –
B1 | – | – | – | 7.2 pM | 4.1 pM | 21.2 pM
Y[Aib]QGTFTSDYSIKLDKQAA[Aib]EFVNWLLAGGPSSGAPPPS-NH2 (not fully specified (residue 13)) [Compound No. 62] | – | – | – | 65 pM | 36 pM | 891 pM
Y[Aib]QGTFTSDYSIYLDKQAA[Aib]EFVKWLLAGGPSSGAPPPS-NH2 (not fully specified (residue 24)) [Compound No. 64] | – | – | – | 174 pM | 45.4 pM | 464 pM
B2 | – | – | – | 416 pM | 14.9 pM | 182 pM
Y[Aib]QGTFTSDYSIYKDKQAA[Aib]EFVNWLLAGGPSSGAPPPS-NH2 (not fully specified (residue 14)) [Compound No. 63] | – | – | – | 175 pM | 25 pM | 1110 pM
Y[Aib]QGTFTSDYSIYLDKQAA[Aib]EFVNWLLAKGPSSGAPPPS-NH2 (not fully specified (residue 29)) [Compound No. 65] | – | – | – | 56 pM | 132 pM | 1350 pM
Y[Aib]QGTFTSDYSIYLDKQAA[Aib]EFVNWLLAGGPSSGKPPPS-NH2 (not fully specified (residue 35)) [Compound No. 66] | – | – | – | 26 pM | 12 pM | 1020 pM
Y[Aib]QGTFTSDYSIYLDKQAA[Aib]EFVNWLLAGGPSSGAPPPSK-NH2 (not fully specified (residue 40)) [Compound No. 59] | – | – | – | 44.5 pM | 11.7 pM | 703 pM
